Measurements as given in PMC4315244 (The Journal of Cell Biology, 2015).

Experiments:
AUC + SEC = molecular target: the molecule itself; assay: AUC + SEC
Nup82-Flag-TEV-ProtA = Nup82-Flag-TEV-ProtA (S. cerevisiae, UniProt P40368 1-713); assay: quantitative targeted mass spectrometry
Nup82 (of the …) = molecular target: Nup82 (of the Nup82–Nup159tail–Flag-Nsp1C complex) (S. cerevisiae, UniProt P40368 1-713); assay: SEC-MALS
SEC-MALS = molecular target: the molecule itself; assay: SEC-MALS

Chain of Nup82-Flag-TEV-ProtA (P40368 whole entry): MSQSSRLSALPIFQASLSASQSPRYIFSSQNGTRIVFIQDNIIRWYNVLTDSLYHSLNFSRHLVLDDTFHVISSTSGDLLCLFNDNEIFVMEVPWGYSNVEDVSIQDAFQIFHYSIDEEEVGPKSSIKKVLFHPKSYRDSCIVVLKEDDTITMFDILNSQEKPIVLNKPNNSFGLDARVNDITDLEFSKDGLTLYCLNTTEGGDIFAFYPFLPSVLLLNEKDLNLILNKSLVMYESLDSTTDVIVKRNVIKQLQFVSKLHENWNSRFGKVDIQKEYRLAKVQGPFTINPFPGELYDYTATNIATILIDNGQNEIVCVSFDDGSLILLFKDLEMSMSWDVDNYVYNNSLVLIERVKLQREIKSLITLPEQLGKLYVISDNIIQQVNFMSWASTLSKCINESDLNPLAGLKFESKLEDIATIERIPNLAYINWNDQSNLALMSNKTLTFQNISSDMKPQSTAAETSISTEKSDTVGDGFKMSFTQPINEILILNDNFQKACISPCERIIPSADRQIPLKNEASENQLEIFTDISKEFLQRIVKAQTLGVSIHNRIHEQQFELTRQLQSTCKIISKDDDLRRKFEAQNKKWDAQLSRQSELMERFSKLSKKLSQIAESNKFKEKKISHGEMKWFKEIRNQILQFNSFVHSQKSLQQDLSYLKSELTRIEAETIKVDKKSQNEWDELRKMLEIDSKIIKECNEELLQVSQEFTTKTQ
Chain of Nup82 (of the Nup82–Nup159tail–Flag-Nsp1C complex) (P40368 whole entry, one chain of several): as the sequence (P40368 whole entry) above

B1: Nup159C (domain or fragment, S. cerevisiae, UniProt P40477 1082-1460, looked up)
chain: EDINTDELPHGGEAFKAREVSASADFDVQTSLEDNYAESGIQTDLSESSKENEVQTDAIPVKHNSTQTVKKEAVDNGLQTEPVETCNFSVQTFEGDENYLAEQCKPKQLKEYYTSAKVSNIPFVSQNSTLRLIESTFQTVEAEFTVLMENIRNMDTFFTDQSSIPLVKRTVRSINNLYTWRIPEAEILLNIQNNIKCEQMQITNANIQDLKEKVTDYVRKDIAQITEDVANAKEEYLFLMHFDDASSGYVKDLSTHQFRMQKTLRQKLFDVSAKINHTEELLNILKLFTVKNKRLDDNPLVAKLAKESLARDGLLKEIKLLREQVSRLQLEEKGKKASSFDASSSITKDMKGFKVVEVGLAMNTKKQIGDFFKNLNMAK
stoichiometry N (AUC + SEC): 2 | stoichiometry N (Nup82-Flag-TEV-ProtA): 1

B2: Flag-Nsp1C (domain or fragment)
chain: not shown
stoichiometry N (Nup82 (of the …)): 1

B3: Nsp1C (domain or fragment)
chain: not shown
stoichiometry N (Nup82-Flag-TEV-ProtA): 1

B4: Nup159-QT4–5-Linker-H1 (domain or fragment, S. cerevisiae, UniProt P40477 1150-1244, looked up)
chain: VKKEAVDNGLQTEPVETCNFSVQTFEGDENYLAEQCKPKQLKEYYTSAKVSNIPFVSQNSTLRLIESTFQTVEAEFTVLMENIRNMDTFFTDQSS
stoichiometry N (SEC-MALS): 4
